From article doi:10.1101/2025.01.10.632391

Biological target: angiopoietin-like 6 (ANGPTL6) (UniProt Q8NI99)
Test: SPR

Sequence of UniProt Q8NI99 (Q8NI99 21-470): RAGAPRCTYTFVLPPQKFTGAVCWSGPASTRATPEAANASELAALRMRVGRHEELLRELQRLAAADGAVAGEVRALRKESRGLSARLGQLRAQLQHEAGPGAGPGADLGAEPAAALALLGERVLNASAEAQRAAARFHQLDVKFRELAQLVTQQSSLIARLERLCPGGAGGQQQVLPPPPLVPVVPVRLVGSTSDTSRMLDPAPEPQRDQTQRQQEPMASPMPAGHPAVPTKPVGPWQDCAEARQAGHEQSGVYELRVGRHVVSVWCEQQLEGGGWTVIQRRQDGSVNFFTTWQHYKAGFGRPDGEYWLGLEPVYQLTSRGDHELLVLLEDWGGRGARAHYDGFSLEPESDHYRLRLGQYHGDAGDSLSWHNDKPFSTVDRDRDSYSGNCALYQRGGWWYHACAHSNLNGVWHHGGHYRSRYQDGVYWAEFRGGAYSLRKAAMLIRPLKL

Kd: 13 nM
koff: 0.0012 s⁻¹
Substance: αVβ5 integrin (from UniProt P06756 31-1048; P18084 24-719) (complex)
